In patent publication US20220332804A1 (CSL INNOVATION, published 2022):
Positions count from the first letter of the chain named.

What was measured:
Assay in all cases: SPR, KD relative to WT C2;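 further: biacore SPR at 37 °C, anti-C2 mAbs captured via immobilised goat anti-human IgG, C2 alanine or serine surface mutants as analytes, 1:1 model fitted, double-referenced sensograms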
[1] = biological target: T1, human C2 E490A (human, UniProt P06681 21-752)
T1 sequence: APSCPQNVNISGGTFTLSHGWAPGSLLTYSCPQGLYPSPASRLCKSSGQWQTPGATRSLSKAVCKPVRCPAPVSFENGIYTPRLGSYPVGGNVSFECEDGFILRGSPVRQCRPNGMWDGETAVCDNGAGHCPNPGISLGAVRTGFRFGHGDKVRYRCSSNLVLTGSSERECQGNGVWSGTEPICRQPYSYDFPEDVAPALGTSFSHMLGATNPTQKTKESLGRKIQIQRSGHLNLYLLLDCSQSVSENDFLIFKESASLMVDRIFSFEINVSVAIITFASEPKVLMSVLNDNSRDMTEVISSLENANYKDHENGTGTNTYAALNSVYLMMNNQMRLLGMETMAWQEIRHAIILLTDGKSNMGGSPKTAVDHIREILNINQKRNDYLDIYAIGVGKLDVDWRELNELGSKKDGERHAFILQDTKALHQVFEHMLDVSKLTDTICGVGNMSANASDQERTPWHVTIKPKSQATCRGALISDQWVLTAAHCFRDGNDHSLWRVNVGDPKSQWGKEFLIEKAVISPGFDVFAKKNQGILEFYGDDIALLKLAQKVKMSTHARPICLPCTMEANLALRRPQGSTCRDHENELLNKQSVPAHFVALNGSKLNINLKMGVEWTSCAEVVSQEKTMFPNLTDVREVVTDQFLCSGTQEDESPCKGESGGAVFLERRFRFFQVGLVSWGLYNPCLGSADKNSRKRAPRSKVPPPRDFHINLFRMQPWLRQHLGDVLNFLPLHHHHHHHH

[2] = biological target: T2, human C2 Q447A (human, UniProt P06681 21-752)
T2 sequence: T1 sequence with Q427A, A470E

[3] = biological target: T3, human C2 K721A (human, UniProt P06681 21-752)
T3 sequence: T1 sequence with A470E, K701A

[4] = biological target: T4, human C2 G707A (human, UniProt P06681 21-752)
T4 sequence: T1 sequence with A470E, G687A

B1: RF16-226 (antibody, human IgG4 S228P, lambda)
heavy: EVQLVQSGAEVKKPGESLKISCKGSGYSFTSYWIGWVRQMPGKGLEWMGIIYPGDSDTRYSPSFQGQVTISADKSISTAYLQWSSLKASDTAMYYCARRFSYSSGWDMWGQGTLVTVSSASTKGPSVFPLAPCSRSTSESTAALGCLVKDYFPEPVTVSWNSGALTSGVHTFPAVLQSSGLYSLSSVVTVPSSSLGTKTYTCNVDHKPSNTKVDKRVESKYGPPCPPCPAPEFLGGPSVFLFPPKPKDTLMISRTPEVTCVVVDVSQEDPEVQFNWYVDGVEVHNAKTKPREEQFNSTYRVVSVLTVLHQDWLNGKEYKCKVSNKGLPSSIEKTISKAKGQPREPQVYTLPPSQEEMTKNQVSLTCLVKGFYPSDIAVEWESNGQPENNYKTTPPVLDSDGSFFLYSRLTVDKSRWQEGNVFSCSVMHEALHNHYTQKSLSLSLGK
light: SYELTQPPSVSVSPGQTARITCSGDALTSKYVAWYQQKSGLAPLLVIYEDTRRPSGIPAKFSGSSSGSVATLTISGAHGDDEADYYCYSTDASGHQRVFGGGTKLTVLSQPKAAPSVTLFPPSSEELQANKATLVCLISDFYPGAVTVAWKADGSPVKAGVETTKPSKQSNNKYAASSYLSLTPEQWKSHRSYSCQVTHEGSTVEKTVAPTECS
notes: pH-dependent anti-C2 antibody from a phage display library; also called WT
In the case of B1, the Fold diff [1] is reported as 2 fold, the Fold diff [2] is reported as 1 fold and the Fold diff [3] is reported as 10 fold. For the same binder, the Fold diff [4] was 2 fold.
